± gives the standard deviation of the averaged measurements.
What follows are sequences tested on Saccharomyces cerevisiae (assay: protein stability index of tFT-peptide fusion (C-terminal peptide) (PSI (0-1 scale)); higher = more stable (slower turnover)). Conditions: genetic background: das1 deletion; temperature: 37 C.
Method: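 MPS profiling in S. cerevisiae of the tFT-X12 degron library: putative degron peptides plus stable controls, 12 aa, fused to the C-terminus of a sfGFP-mCherry timer. Cells are FACS-sorted into 8 mCherry/sfGFP bins and deep-sequenced. PSI runs from 0 (unstable) to 1 (stable). Backgrounds are wild type, das1Δ and doa10Δ at 30 °C, and wild type, das1Δ, cdc34-1 and cdc53-1 at 37 °C; 2-3 technical replicates each.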
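Further: PSI is a weighted mean of sequencing reads over stability bins, variants kept only with over 10 reads, mCherry proximal and sfGFP distal, peptide attached via GGGS linker.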

Sequence | protein stability index
GLLMCNPLLHSI | 0.727 ± 0.03
IMWAFFMFCSFL | 0.5564 ± 0.0029
LSLCFGPFFYFP | 0.711 ± 0.03
PPPPPSARSPFR | 0.7402 ± 0.0063
RVIESRWFNRLC | 0.7405 ± 0.0048
TFCVLLQFCVLV | 0.426 ± 0.02

Same assay, conditions: genetic background: doa10 deletion; temperature: 30 C

Sequence | protein stability index
ACCLLFSFAFTV | 0.187 ± 0.0034
AFFALGSFFFLL | 0.265 ± 0.0044
AFRCVVLCWFLK | 0.268 ± 0.029
AFVSVHRLRLAS | 0.174 ± 0.0083
AGLAPCFLLFVC | 0.0908 ± 0.024
AGMIKLRKKKVL | 0.208 ± 0.026
AGSPPSRPPWLP | 0.679 ± 0.034
AGVRLIFLFWGF | 0.444 ± 0.028
AHSFKCVGVAVR | 0.309 ± 0.004
AIREVQYSFFPS | 0.6445 ± 0.0018
ALERCFIRRVTV | 0.322 ± 0.024
ALVYVPACRLVV | 0.256 ± 0.011
APCRVPVLGLVF | 0.204 ± 0.016
APLPPVCPSPSL | 0.679 ± 0.052
ARRRYEVLAVLV | 0.135 ± 0.0081
ASTGPLAAIRVY | 0.377 ± 0.035
AVCVGILIWATV | 0.142 ± 0.018
AVLVSGMVVWLV | 0.32 ± 0.013
AVSFTLVLCSCF | 0.389 ± 0.0073
AVVLLFIPRKLL | 0.148 ± 0.011
AVWVAVEVEAGR | 0.3 ± 0.009
AVYEGLLIRCLI | 0.195 ± 0.013
AYFLKRSSILVR | 0.2062 ± 0.002
CAIHIKIQMSVE | 0.0457 ± 0.0051
CALCIGTYIRVV | 0.367 ± 0.029
CCLFFLVVFVGW | 0.194 ± 0.029
CCNVLFRVCLFL | 0.277 ± 0.0045

Sequence | protein stability index
CFGVVVLGLSLD | 0.319 ± 0.0043
CFLPFFIIFIFV | 0.271 ± 0.0063
CFVFIGVGVLLG | 0.224 ± 0.0069
CIEIDHVIVAIC | 0.265 ± 0.0061
CKFLYMALLFFW | 0.313 ± 0.02
CLFLVFCFCVCS | 0.534 ± 0.018
CLGFWVCCYCLV | 0.246 ± 0.0084
CLHWFMVLFRVL | 0.212 ± 0.013
CLLLVISSLCSG | 0.261 ± 0.0032
CLVLCLSIPSPL | 0.501 ± 0.018
CLVWLVRIIVLD | 0.206 ± 0.005
CPFFFFSLIFLF | 0.349 ± 0.025
CRLFPFPLLAQL | 0.425 ± 0.013
CSAARKDGLAPL | 0.633 ± 0.021
CSLPVLFLPYYL | 0.606 ± 0.014
CSPVNGSAVWSI | 0.664 ± 0.019
CSSFFLLLFFLF | 0.301 ± 0.021
CSWMRSRMWVGG | 0.454 ± 0.014
CTWGRYGGIWLR | 0.668 ± 0.034
CVFCLTVFVRFL | 0.128 ± 0.014
CVFVWFWCMTWV | 0.105 ± 0.069
CVLFLGQILCVV | 0.236 ± 0.011
CYSRRGCIYFFF | 0.0971 ± 0.018
DHSIYYGVAKVF | 0.0729 ± 0.022
DKKNCIIIYYKQ | 0.0802 ± 0.03
DLDLLTKFSKEC | 0.4783 ± 0.0024
DNTVWLRLVTSC | 0.0752 ± 0.013

Sequence | protein stability index
DRHCLVSLSPDG | 0.623 ± 0.016
DRLAVLVLLRVY | 0.0574 ± 0.01
DRRFLVMISVSL | 0.251 ± 0.0083
DRSPLPAIFVAQ | 0.665 ± 0.013
DTAFLLVVVVGR | 0.213 ± 0.0084
DYIFVYAVMFMR | 0.116 ± 0.0035
EFCITAFVSVLT | 0.287 ± 0.011
EGLRVSVCAWVM | 0.253 ± 0.019
EHIRWLLPKHCL | 0.2907 ± 0.0018
EIKTEIGKKKKN | 0.541 ± 0.0061
EINRKKRKTKIN | 0.312 ± 0.023
ERGSLPRIHHLI | 0.127 ± 0.012
ERLVFKRWYLCL | 0.0726 ± 0.026
ESCVRSRRVLLC | 0.129 ± 0.044
FCLRQPMLRFFI | 0.479 ± 0.03
FLFVSVFHPALL | 0.3787 ± 0.0024
GAVGGWGWVSFV | 0.3855 ± 0.0037
GGCGFVWWRLLG | 0.125 ± 0.0054
GGGRGGRWGRLC | 0.188 ± 0.018
GLLMCNPLLHSI | 0.589 ± 0.032
IMWAFFMFCSFL | 0.37 ± 0.0076
LSLCFGPFFYFP | 0.64 ± 0.042
PPPPPSARSPFR | 0.603 ± 0.03
RVIESRWFNRLC | 0.0884 ± 0.011
TFCVLLQFCVLV | 0.3058 ± 0.0007

Same assay, conditions: genetic background: wild type; temperature: 30 C

Sequence | protein stability index
ACCLLFSFAFTV | 0.213 ± 0.029
AFFALGSFFFLL | 0.289 ± 0.03
AFRCVVLCWFLK | 0.281 ± 0.014
AFVSVHRLRLAS | 0.183 ± 0.037
AGLAPCFLLFVC | 0.0981 ± 0.021
AGMIKLRKKKVL | 0.248 ± 0.041
AGSPPSRPPWLP | 0.678 ± 0.021
AGVRLIFLFWGF | 0.407 ± 0.054
AHSFKCVGVAVR | 0.347 ± 0.032
AIREVQYSFFPS | 0.66 ± 0.012
ALERCFIRRVTV | 0.394 ± 0.016
ALVYVPACRLVV | 0.303 ± 0.018
APCRVPVLGLVF | 0.257 ± 0.013
APLPPVCPSPSL | 0.657 ± 0.018
ARRRYEVLAVLV | 0.149 ± 0.024
ASTGPLAAIRVY | 0.41 ± 0.019
AVCVGILIWATV | 0.165 ± 0.025
AVLVSGMVVWLV | 0.357 ± 0.0096
AVSFTLVLCSCF | 0.401 ± 0.019
AVVLLFIPRKLL | 0.173 ± 0.021
AVWVAVEVEAGR | 0.333 ± 0.023
AVYEGLLIRCLI | 0.251 ± 0.021
AYFLKRSSILVR | 0.217 ± 0.034
CAIHIKIQMSVE | 0.0488 ± 0.02

Sequence | protein stability index
CALCIGTYIRVV | 0.345 ± 0.048
CCLFFLVVFVGW | 0.183 ± 0.019
CCNVLFRVCLFL | 0.304 ± 0.025
CFGVVVLGLSLD | 0.354 ± 0.027
CFLPFFIIFIFV | 0.197 ± 0.031
CFVFIGVGVLLG | 0.234 ± 0.021
CIEIDHVIVAIC | 0.334 ± 0.015
CKFLYMALLFFW | 0.288 ± 0.025
CLFLVFCFCVCS | 0.512 ± 0.02
CLGFWVCCYCLV | 0.281 ± 0.035
CLHWFMVLFRVL | 0.122 ± 0.037
CLLLVISSLCSG | 0.301 ± 0.0098
CLVLCLSIPSPL | 0.5 ± 0.015
CLVWLVRIIVLD | 0.195 ± 0.048
CPFFFFSLIFLF | 0.193 ± 0.03
CRLFPFPLLAQL | 0.415 ± 0.025
CSAARKDGLAPL | 0.649 ± 0.029
CSLPVLFLPYYL | 0.492 ± 0.0051
CSPVNGSAVWSI | 0.667 ± 0.017
CSSFFLLLFFLF | 0.268 ± 0.01
CSWMRSRMWVGG | 0.409 ± 0.013
CTWGRYGGIWLR | 0.117 ± 0.023
CVFCLTVFVRFL | 0.151 ± 0.022
CVFVWFWCMTWV | 0.117 ± 0.11

Sequence | protein stability index
CVLFLGQILCVV | 0.276 ± 0.017
CYSRRGCIYFFF | 0.101 ± 0.022
DHSIYYGVAKVF | 0.0841 ± 0.024
DKKNCIIIYYKQ | 0.0804 ± 0.024
DLDLLTKFSKEC | 0.503 ± 0.025
DNTVWLRLVTSC | 0.0895 ± 0.015
DRHCLVSLSPDG | 0.6079 ± 0.0033
DRLAVLVLLRVY | 0.0636 ± 0.018
DRRFLVMISVSL | 0.262 ± 0.028
DRSPLPAIFVAQ | 0.643 ± 0.012
DTAFLLVVVVGR | 0.232 ± 0.032
DYIFVYAVMFMR | 0.118 ± 0.031
EFCITAFVSVLT | 0.329 ± 0.025
EGLRVSVCAWVM | 0.277 ± 0.013
EHIRWLLPKHCL | 0.314 ± 0.017
EIKTEIGKKKKN | 0.61 ± 0.028
EINRKKRKTKIN | 0.373 ± 0.018
ERGSLPRIHHLI | 0.168 ± 0.034
ERLVFKRWYLCL | 0.0951 ± 0.039
ESCVRSRRVLLC | 0.127 ± 0.017
FCLRQPMLRFFI | 0.442 ± 0.028
FLFVSVFHPALL | 0.409 ± 0.019
